Where “and” joins values, the source holds several entries; their conditions need not be identical. Equal values may be shown once.
B1: NF2 (merlin) isoform 7, human, full length (507 aa, lacks exons 2-3 = isoform-1 residues 39-121; exon-16 C-terminus), P35240-4 (parent)
chain: MAGAIASRMSFSSLKRKQPKTFTVRIVTMDAEMEFNCEVKKQILDEKIYCPPEASVLLASYAVQAKYGDYDPSVHKRGFLAQEELLPKRVINLYQMTPEMWEERITAWYAEHRGRARDEAEMEYLKIAQDLEMYGVNYFAIRNKKGTELLLGVDALGLHIYDPENRLTPKISFPWNEIRNISYSDKEFTIKPLDKKIDVFKFNSSKLRVNKLILQLCIGNHDLFMRRRKADSLEVQQMKAQAREEKARKQMERQRLAREKQMREEAERTRDELERRLLQMKEEATMANEALMRSEETADLLAEKAQITEEEAKLLAQKAAEAEQEMQRIKATAIRTEEEKRLMEQKVLEAEVLALKMAEESERRAKEADQLKQDLQEAREAERRAKQKLLEIATKPTYPPMNPIPAPLPPDIPSFNLIGDSLSFDFKDTDMKRLSMEIEKEKVEYMEKSKHLQEQLNELKTEIEALKLKERETALDILHNENSDRGGSSKHNTIKKPQAQGRRPICI

Variants of: B1
Test: reverse yeast two-hybrid deep mutational scan (rY2H-seq): NF2 isoform 7 mutant library as bait mated with wild-type prey strains; selection on medium lacking adenine for non-interacting pairs; NextSeq paired-end sequencing; enrichment vs …
Details: with PIK3R3 (phosphatidylinositol 3-kinase regulatory subunit gamma), Q92569; yeast diploids after mating (RBait_S3 x RPrey_S3), 30 °C, selection for reporter genes on NB agar; human tyrosine kinase ABL2 co-expressed as the active kinase …; HIGHER = WEAKER BINDING (the opposite of display enrichments): higher = stronger loss of interaction: reverse Y2H selects yeast in which bait and prey do NOT interact (growth without adenine), so a …; hits-only table; scale: rY2H score; numbering: uniprot, sequence starts at 1

| Variant | enrichment |
| --- | --- |
| L57F | 1.98 |
| I213F | 15.3 |
| S204F | 3.76 and 3.21 |

Same assay, conditions: with KDM1A (lysine-specific histone demethylase 1A; the table's label AOF2 is a gene synonym of KDM1A), O60341; yeast diploids after mating (RBait_S3 x RPrey_S3), 30 °C, selection for reporter genes on NB agar; human tyrosine kinase ABL2 co-expressed as the active kinase …; HIGHER = WEAKER BINDING (the opposite of display enrichments): higher = stronger loss of interaction: reverse Y2H selects yeast in which bait and prey do NOT interact (growth without adenine), so a …; hits-only table; scale: rY2H score; numbering: uniprot, sequence starts at 1

| Variant | enrichment |
| --- | --- |
| S60F | 3.51 |
| I505F | 2.14 |
| I213F | 6.76 |

Same assay, conditions: with EMILIN1 (elastin microfibril interfacer 1), Q9Y6C2; yeast diploids after mating (RBait_S3 x RPrey_S3), 30 °C, selection for reporter genes on NB agar; human tyrosine kinase ABL2 co-expressed as the active kinase …; HIGHER = WEAKER BINDING (the opposite of display enrichments): higher = stronger loss of interaction: reverse Y2H selects yeast in which bait and prey do NOT interact (growth without adenine), so a …; hits-only table; scale: rY2H score; numbering: uniprot, sequence starts at 1

| Variant | enrichment |
| --- | --- |
| I505F | 1.61 |
| I213F | 3.35 |
| N402F | 4.91 |

Same assay, conditions: with NF2 C-terminal domain (wild type; homomeric NF2-NF2 interaction), P35240; yeast diploids after mating (RBait_S3 x RPrey_S3), 30 °C, selection for reporter genes on NB agar; human ABL2 co-expressed as the kinase-dead K35M mutant …; HIGHER = WEAKER BINDING (the opposite of display enrichments): higher = stronger loss of interaction: reverse Y2H selects yeast in which bait and prey do NOT interact (growth without adenine), so a …; hits-only table; partner unresolved; scale: rY2H score; numbering: uniprot, sequence starts at 1

| Variant | enrichment |
| --- | --- |
| I505F | 2.29 |
| I213F | 4.21 |

Same assay, conditions: with EMILIN1 (elastin microfibril interfacer 1), Q9Y6C2; yeast diploids after mating (RBait_S3 x RPrey_S3), 30 °C, selection for reporter genes on NB agar; human ABL2 co-expressed as the kinase-dead K35M mutant …; HIGHER = WEAKER BINDING (the opposite of display enrichments): higher = stronger loss of interaction: reverse Y2H selects yeast in which bait and prey do NOT interact (growth without adenine), so a …; hits-only table; scale: rY2H score; numbering: uniprot, sequence starts at 1

| Variant | enrichment |
| --- | --- |
| I213F | 7.19 and 3.36 |
| A406F | 10.8 |
| S172F | 1.58 |

Same assay, conditions: with KDM1A (lysine-specific histone demethylase 1A; the table's label AOF2 is a gene synonym of KDM1A), O60341; yeast diploids after mating (RBait_S3 x RPrey_S3), 30 °C, selection for reporter genes on NB agar; human ABL2 co-expressed as the kinase-dead K35M mutant …; HIGHER = WEAKER BINDING (the opposite of display enrichments): higher = stronger loss of interaction: reverse Y2H selects yeast in which bait and prey do NOT interact (growth without adenine), so a …; hits-only table; scale: rY2H score; numbering: uniprot, sequence starts at 1

| Variant | enrichment |
| --- | --- |
| N402F | 24.7 |

Source: publication PMC10244618
